Assay results from patent publication US20220040297A1 (Chugai, published 2022).
Positions count from the first letter of the chain named. In names and notes the source's numbering stands. Each block holds one binder with its values, some of them ahead of it.

Key:
[1] = molecular target: T1, biotin-labeled human CD154 (human, UniProt P29965 113-261, limits assumed, biotin-labeled); assay: ECL competition: biotinylated CD154, CD3ε homodimer as competitor [2]
T1 construct: also called biotinylated human CD154
T1 sequence (looked up): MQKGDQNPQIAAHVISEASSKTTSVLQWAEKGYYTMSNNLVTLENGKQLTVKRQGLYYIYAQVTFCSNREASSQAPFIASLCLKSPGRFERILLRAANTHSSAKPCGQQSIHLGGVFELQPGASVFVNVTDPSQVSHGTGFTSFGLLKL
Experimental: (§1) Next, each obtained IgG was evaluated for its binding to CD3 and human CD154 at the same time by the competition method (electrochemiluminescence method (ECL method)).
(§2) A TBST solution containing 0.5% BSA (referred to as a blocking solution; the TBST solution was TBS (manufactured by Takara Bio Inc.) supplemented with 0.1% Tween 20) was added at 150 μL/well to streptavidin plate (MSD K.K.), and the plate was incubated at room temperature for 1 hour or longer. After removal of the blocking solution, each well was washed three times with 250 μL of a TBST solution. The antibody-antigen complex solution was added thereto at 50 L/well, and the plate was incubated at room temperature for 1 hour so that the biotinylated antigen-antibody-detection sulfo-tag antibody complex solution bound via the biotinylated antigen to the streptavidin plate. After removal of the antibody-antigen complex solution, each well was washed three times with a TBST solution, and a solution of 4× READ buffer (MSD K.K.) diluted 2-fold with water was added thereto at 150 μL/well, followed by the detection of the luminescence signal of the sulfo-tag using Sector Imager 2400 (MSD K.K.).

[2] = molecular target: T1, biotin-labeled human CD154; assay: ECL competition: biotinylated CD154, CD3ε homodimer as competitor [1]
Experimental: as §1, §2

CD3ε homodimer protein = molecular target: T2, CD3ε homodimer protein (human, UniProt P07766 23-126, limits assumed); assay: SPR (Biacore); CD3ε homodimer immobilized, one-arm antibody as analyte
T2 construct: also called human CD3ε homodimer protein; CD3e homodimer
T2 sequence (P07766 23-126 limits assumed): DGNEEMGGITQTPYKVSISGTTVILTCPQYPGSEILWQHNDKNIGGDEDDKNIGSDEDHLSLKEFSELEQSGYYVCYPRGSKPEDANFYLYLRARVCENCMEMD

Relative ECL reaction (to no antigen coating), CD3ε[+] [1]: 10
B1: 154R5A02#1 (antibody, human IgG1, kappa, L234A L235A, N297A)
heavy: QVQLVESGGGLVQPGRSLRLSCAASGFTFSNAWMHWVRQAPGKGLEWVAQIKDRGNNYNTYYAPSVKGRFTISRDDSKNSIYLQMNSLKTEDTAVYYCRYVHYGSYFFSGSSFGVDIWGQGTTVTVSSASTKGPSVFPLAPSSKSTSGGTAALGCLVKDYFPEPVTVSWNSGALTSGVHTFPAVLQSSGLYSLSSVVTVPSSSLGTQTYICNVNHKPSNTKVDKKVEPKSCDKTHTCPPCPAPEAAGGPSVFLFPPKPKDTLMISRTPEVTCVVVDVSHEDPEVKFNWYVDGVEVHNAKTKPREEQYASTYRVVSVLTVLHQDWLNGKEYKCKVSNKALPAPIEKTISKAKGQPREPQVYTLPPSRCELTKNQVSLSCAVKGFYPSDIAVEWESNGQPENNYKTTPPVLDSDGSFFLVSKLTVDKSRWQQGNVFSCSVMHEALHNHYTQKSLSLSPDYKDDDDK
chain: EPKSSDKTHTCPPCPAPELLGGPSVFLFPPKPKDTLMISRTPEVTCVVVDVSHEDPEVKFNWYVDGVEVHNAKTKPREEQYNSTYRVVSVLTVLHQDWLNGKEYKCKVSNKALPAPIEKTISKAKGQPREPQVCTLPPSRDELTKNQVSLWCLVKGFYPSDIAVEWESNGQPENNYKTTPPVLDSDGSFFLYSKLTVDKSRWQQGNVFSCSVMHEALHNRYTQKSLSLSP
light: DIVMTQSPLSLPVTPGEPASISCRSSQSLVHSNRNTYLHWYQQKPGQAPRLLIYKVSNRFSGVPDRFSGSGSGTDFTLKISRVEAEDVGVYYCGQGTQVPYTFGQGTKLEIKRTVAAPSVFIFPPSDEQLKSGTASVVCLLNNFYPREAKVQWKVDNALQSGNSQESVTEQDSKDSTYSLSSTLTLSKADYEKHKVYACEVTHQGLSSPVTKSFNRGEC
notes: One-arm antibody

Kd (CD3ε homodimer protein): 63.1 nM
B4: CE115HA000 V11L/D72A/L78I/D101Q with GGS inserted between Kabat 99 and 100 (antibody)
heavy: QVQLVESGGGLVQPGRSLRLSCAASGFTFSNAWMHWVRQAPGKGLEWVAQIKAKSNNYATYYAESVKGRFTISRADSKNSIYLQMNSLKTEDTAVYYCRYVHYGAGGSYYGVQAWGQGTTVTVSSASTKGPSVFPLAPSSKSTSGGTAALGCLVKDYFPEPVTVSWNSGALTSGVHTFPAVLQSSGLYSLSSVVTVPSSSLGTQTYICNVNHKPSNTKVDKKVEPKSCDKTHTCPPCPAPEAAGGPSVFLFPPKPKDTLMISRTPEVTCVVVDVSHEDPEVKFNWYVDGVEVHNAKTKPREEQYASTYRVVSVLTVLHQDWLNGKEYKCKVSNKALPAPIEKTISKAKGQPREPQVYTLPPSRCELTKNQVSLSCAVKGFYPSDIAVEWESNGQPENNYKTTPPVLDSDGSFFLVSKLTVDKSRWQQGNVFSCSVMHEALHNHYTQKSLSLSPDYKDDDDK
Fc: B1 chain
light: B1 light
notes: one-arm antibody

Relative ECL reaction (to no antigen coating), CD3ε[+] [2]: 20
B6: 154R4B03#4 (antibody, human IgG1, kappa, L234A L235A, N297A)
heavy: QVQLVESGGGLVQPGRSLRLSCAASGFTFSNAWMHWVRQAPGKGLEWVAQIKDKQSQYANYYAPSVKGRFTISRDDSKSSIYLQMNSLKTEDTAVYYCRYVHYQSTSYSFYQGGVDAWGQGTTVTVSSASTKGPSVFPLAPSSKSTSGGTAALGCLVKDYFPEPVTVSWNSGALTSGVHTFPAVLQSSGLYSLSSVVTVPSSSLGTQTYICNVNHKPSNTKVDKKVEPKSCDKTHTCPPCPAPEAAGGPSVFLFPPKPKDTLMISRTPEVTCVVVDVSHEDPEVKFNWYVDGVEVHNAKTKPREEQYASTYRVVSVLTVLHQDWLNGKEYKCKVSNKALPAPIEKTISKAKGQPREPQVYTLPPSRCELTKNQVSLSCAVKGFYPSDIAVEWESNGQPENNYKTTPPVLDSDGSFFLVSKLTVDKSRWQQGNVFSCSVMHEALHNHYTQKSLSLSPDYKDDDDK
chain: B1 chain
light: B1 light
notes: One-arm antibody

Kd (CD3ε homodimer protein): 110 nM
B10: CE115HA000 / GLS3000 one-arm antibody (antibody, human IgG1, kappa, L234A L235A, N297A)
heavy: QVQLVESGGGVVQPGRSLRLSCAASGFTFSNAWMHWVRQAPGKGLEWVAQIKAKSNNYATYYAESVKGRFTISRDDSKNSLYLQMNSLKTEDTAVYYCRYVHYGAYYGVDAWGQGTTVTVSSASTKGPSVFPLAPSSKSTSGGTAALGCLVKDYFPEPVTVSWNSGALTSGVHTFPAVLQSSGLYSLSSVVTVPSSSLGTQTYICNVNHKPSNTKVDKKVEPKSCDKTHTCPPCPAPEAAGGPSVFLFPPKPKDTLMISRTPEVTCVVVDVSHEDPEVKFNWYVDGVEVHNAKTKPREEQYASTYRVVSVLTVLHQDWLNGKEYKCKVSNKALPAPIEKTISKAKGQPREPQVYTLPPSRCELTKNQVSLSCAVKGFYPSDIAVEWESNGQPENNYKTTPPVLDSDGSFFLVSKLTVDKSRWQQGNVFSCSVMHEALHNHYTQKSLSLSPDYKDDDDK
chain: B1 chain
light: B1 light
notes: one-arm antibody

Relative ECL reaction (to no antigen coating), CD3ε[+] [1]: 10
B11: 154R5F08#3 (antibody, human IgG1, kappa, L234A L235A, N297A)
heavy: B1 heavy with R54K, N57Q, N59A, P64E, F70Y, S105T, S109A, G110L, S111P, S112A
chain: B1 chain
light: B1 light
notes: One-arm antibody

Relative ECL reaction (to no antigen coating), CD3ε[+] [1]: 1
B12: 154R5E11#3 (antibody, human IgG1, kappa, L234A L235A, N297A)
heavy: B1 heavy with N59A, T60A, P64E, S109A, G110S, S111F, S112Y, T123A
chain: B1 chain
light: B1 light
notes: One-arm antibody

Relative ECL reaction (to no antigen coating), CD3ε[+] [1]: 106
B13: 154R5A02#2 (antibody, human IgG1, kappa, L234A L235A, N297A)
heavy: B1 heavy with V101A
chain: B1 chain
light: B1 light
notes: One-arm antibody

Relative ECL reaction (to no antigen coating), CD3ε[+] [1]: 13
B14: 154R5F08#1 (antibody, human IgG1, kappa, L234A L235A, N297A)
heavy: B1 heavy with R54K, N57Q, N59A, P64E, S105T, S109A, G110L, S111P, S112A
chain: B1 chain
light: B1 light
notes: One-arm antibody

The next lines start with the binder.

B2: 154R4B03#1 (antibody, human IgG1, kappa, L234A L235A, N297A)
heavy: B6 heavy with S79N
chain: B1 chain
light: B1 light
notes: One-arm antibody
Relative ECL reaction (to no antigen coating), CD3ε[+] [2]: 18

B3: 154R3A01#4 (antibody, human IgG1, kappa, L234A L235A, N297A)
heavy: QVQLVESGGGLVQPGRSLRLSCAASGFTFSNAWMHWVRQAPGKGLEWVAQIKDRVNQYANYYAECVKGRFTISRDDSKNSIYLQMNSLKTEDTAVYYCRYVHYGLTGYFSGQGGVDAWGQGTTVTVSSASTKGPSVFPLAPSSKSTSGGTAALGCLVKDYFPEPVTVSWNSGALTSGVHTFPAVLQSSGLYSLSSVVTVPSSSLGTQTYICNVNHKPSNTKVDKKVEPKSCDKTHTCPPCPAPEAAGGPSVFLFPPKPKDTLMISRTPEVTCVVVDVSHEDPEVKFNWYVDGVEVHNAKTKPREEQYASTYRVVSVLTVLHQDWLNGKEYKCKVSNKALPAPIEKTISKAKGQPREPQVYTLPPSRCELTKNQVSLSCAVKGFYPSDIAVEWESNGQPENNYKTTPPVLDSDGSFFLVSKLTVDKSRWQQGNVFSCSVMHEALHNHYTQKSLSLSPDYKDDDDK
chain: B1 chain
light: B1 light
notes: One-arm antibody
Relative ECL reaction (to no antigen coating), CD3ε[+] [2]: 4

B5: 154R3B01#1 (antibody, human IgG1, kappa, L234A L235A, N297A)
heavy: QVQLVESGGGLVQPGRSLRLSCAASGFTFSSAWMHWVRQAPGKGLEWVAQIKDKQNQYNAYYAESVKGRFTISRDDSKNSIYLQMNSLKTEDTAVYYCRYVHYATSDGFLPYFGVDAWGQGTTVTVSSASTKGPSVFPLAPSSKSTSGGTAALGCLVKDYFPEPVTVSWNSGALTSGVHTFPAVLQSSGLYSLSSVVTVPSSSLGTQTYICNVNHKPSNTKVDKKVEPKSCDKTHTCPPCPAPEAAGGPSVFLFPPKPKDTLMISRTPEVTCVVVDVSHEDPEVKFNWYVDGVEVHNAKTKPREEQYASTYRVVSVLTVLHQDWLNGKEYKCKVSNKALPAPIEKTISKAKGQPREPQVYTLPPSRCELTKNQVSLSCAVKGFYPSDIAVEWESNGQPENNYKTTPPVLDSDGSFFLVSKLTVDKSRWQQGNVFSCSVMHEALHNHYTQKSLSLSPDYKDDDDK
chain: B1 chain
light: B1 light
notes: One-arm antibody
Relative ECL reaction (to no antigen coating), CD3ε[+] [2]: 18

B7: 154R3F02#2 (antibody, human IgG1, kappa, L234A L235A, N297A)
heavy: QVQLVESGGGLVQPGRSLRLSCAASGFTFSNAWMHWVRQAPGKGLEWVAQIKDRASGYNNYYAESVKGRFTISRDDSKNSIYLQMNSLKTEDTAVYYCRYVHYAQSVSAFFQYGVDAWGQGTTVTVSSASTKGPSVFPLAPSSKSTSGGTAALGCLVKDYFPEPVTVSWNSGALTSGVHTFPAVLQSSGLYSLSSVVTVPSSSLGTQTYICNVNHKPSNTKVDKKVEPKSCDKTHTCPPCPAPEAAGGPSVFLFPPKPKDTLMISRTPEVTCVVVDVSHEDPEVKFNWYVDGVEVHNAKTKPREEQYASTYRVVSVLTVLHQDWLNGKEYKCKVSNKALPAPIEKTISKAKGQPREPQVYTLPPSRCELTKNQVSLSCAVKGFYPSDIAVEWESNGQPENNYKTTPPVLDSDGSFFLVSKLTVDKSRWQQGNVFSCSVMHEALHNHYTQKSLSLSPDYKDDDDK
chain: B1 chain
light: B1 light
notes: One-arm antibody
Relative ECL reaction (to no antigen coating), CD3ε[+] [2]: 16

B8: CE115HA000 V11L/D72A/L78I/D101Q, no insertion (antibody, human IgG1, kappa, L234A L235A, N297A, name in Kabat numbering)
heavy: B10 heavy with V11L, D75A, L81I, D110Q
chain: B1 chain
light: B1 light
Kd (CD3ε homodimer protein): 6.96 nM

B9: 154R3A01#3 (antibody, human IgG1, kappa, L234A L235A, N297A)
heavy: B3 heavy with T28A, C65S
chain: B1 chain
light: B1 light
notes: One-arm antibody
Relative ECL reaction (to no antigen coating), CD3ε[+] [2]: 19
